# Laboratory results: paper doi:10.1101/2025.04.07.647595, “Real-time tracking of mRNP complex assembly reveals various mechanisms that synergistically enhance translation repression”
# T1: Sxl-dRBD5 (UniProt P19339 122-305)
# T1 sequence: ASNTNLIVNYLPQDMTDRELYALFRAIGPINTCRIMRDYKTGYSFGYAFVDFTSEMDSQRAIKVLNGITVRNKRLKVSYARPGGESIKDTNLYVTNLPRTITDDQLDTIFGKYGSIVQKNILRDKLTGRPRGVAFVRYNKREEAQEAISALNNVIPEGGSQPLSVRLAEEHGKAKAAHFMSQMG
# Target: T1, Sxl-dRBD5
# Assay: NMR; BMRB 52948; C-terminal helix forms on RNA binding; FP: 10 mM Tris/HCl pH 7.5, 20 mM KCl, 25 mM NaCl, 0.005% NP-40; ITC: 50 mM Tris/HCl pH 7.5, 50 or 150 mM KCl, 298 K; smFRET: 50 mM salt at 21 C, or 150 mM at 29 C for Hrp48 assays
# Conditions: protein: recombinant; tags: His6-Trx-TEV removed
binder,measurement,value
UUUUUUUUUU (ssRNA) [U10-mer RNA],binding result,binds
